# Patent publication US20180134765A1
# B1: Her2-specific antibody heavy chain fusion to ULBP3 α1-α2 variant R162G (antibody, part only; not given: Anti-HER2 heavy and light chains, not shown: another chain or arm of the molecule; small tags and cut ends)
# chain: AAEPHSLWYNFTIIHLPRHGQQWCEVQSQVDQKNFLSYDCGSDKVLSMGHLEEQLYATDAWGKQLEMLREVGQRLRLELADTELEDFTPSGPLTLQVRMSCESEADGYIRGSWQFSFDGRKFLLFDSNNRKWTVVHAGARRMKEKWEKDSGLTTFFKMVSMGDCKSWLRDFLMHRKKRLEPTAP
# B2: Her2-specific antibody heavy chain fusion to ULBP2 α1-α2 variant R80W (antibody, part only; not given: Anti-HER2 heavy and light chains, not shown: another chain or arm of the molecule; small tags and cut ends)
# chain: AAEPHSLSYDITVIPKFRPGPRWCAVQGQVDEKTFLHYDCGNKTVTPVSPLGKKLNVTTAWKAQNPVLREVVDILTEQLWDIQLENYTPKEPLTLQARMSCEQKAEGHSSGSWQFSFDGQIFLLFDSEKRMWTTVHPGARKMKEKWENDKVVAMSFHYFSMGDCIGWLEDFLMGMDSTLEPSAGAP
# Molecular target: human NKG2D (Example 6 binding ELISA) (human) (UniProt P26718)
# Assay: binding ELISA of the HER2 antibody heavy chain fusion on human NKG2D
# human NKG2D (Example 6 binding ELISA) (human), sequence (P26718 78-216 limits assumed): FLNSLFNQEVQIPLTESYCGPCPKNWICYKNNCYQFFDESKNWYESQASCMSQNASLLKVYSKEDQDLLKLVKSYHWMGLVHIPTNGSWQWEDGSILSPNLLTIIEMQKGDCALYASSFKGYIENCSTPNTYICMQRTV
binder,measurement,value
B1,EC50 (read off the curve),0.4 nM
B2,EC50 (read off the curve),1 to 2 nM
